In the supplement of paper PMC7877785:
± gives the uncertainty stated by the source.

Test: self-splicing fitness, log relative to wild type (ln ratio); higher = more splicing; Tetrahymena group I intron in knt gene, E. coli kanamycin selection, DiMSum; sequences stand for … in CUCUCU…GGAGGGAAAAGUUAUCAGGCAUGCACCUGGUAGCUAGUCUUUAAACCAAUAGAUUGCAUCGGUUUAAAAGGCAAGACCGUCAAAUUGCGGGAAAGGGGUCAACAGCCGUUCAGUACCAAGUCUCAGGGGAAACUUUGAGAUGGCCUUGCAAAGGGUAUGGUAAUAAGCUGACGGACAUGGUCCUAACCACGCAGCCAAGUCCUAAGUCAACAGAUCUUCUGUUGAUAUGGAUGCAGUUCACAGACUAAAUGUCGGUCGGGGAAGAUGUAUUCUUCUCAUAAGAUAUAGUCGGACCUCUCCUUAAUGGGAGCUAGCGGAUGAAGUGAUGCAACACUGGAGCCGCUGGGAACUAAUUUGUAUGCGAAAGUAUAUUGAUUAGUUUUGGAGUACUCGUGGUCG
How it was run: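 The eight P1ex-region nucleotides of an intron in the knt kanamycin-resistance gene on pET-22b(+) were all randomised and the library put into E. coli BL21(DE3). Six replicate transformations were grown overnight at 37°C or 30°C on LB agar with or without 25 μg/mL kanamycin, together with 100 μg/mL carbenicillin, 50 μM IPTG and 0.2% rhamnose. Colonies were pooled and amplicon-sequenced on an Illumina HiSeq 2500. Fitness from DiMSum is the error-weighted combination of wild-type-normalised replicate fold changes, kanamycin over none.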

Row | Sequence | self-splicing fitness (ln) (30 °C) | self-splicing fitness (ln) (37 °C)
1 | CGGCAGCAAUAUUACGGUGC | -2.88 ± 0.16 | -2.18 ± 0.19
2 | CGGCAGCAAUAUUACGGUUG | -2.93 ± 0.14 | -1.11 ± 0.12
3 | CGGCAGCAAUAUUACGUCGA | -3.24 ± 0.19 | -1.07 ± 0.15
4 | CGGCAGCAAUAUUACGUCGC |  | -0.603 ± 0.28
5 | CGGCAGCAAUAUUACGUGAC | -3.9 ± 0.13 | -1.22 ± 0.1
6 | CGGGAGCAAUAUUACGACGG | -1.4 ± 0.23 | -0.65 ± 0.42
7 | CGGGAGCAAUAUUACGAGAU |  | -2.17 ± 0.35
8 | CGGGAGCAAUAUUACGAGCG | -1.78 ± 0.18 | -1.19 ± 0.48
9 | CGGGAGCAAUAUUACGAGUA | -2.74 ± 0.42 | 
10 | CGGGAGCAAUAUUACGCAUG | -2.83 ± 0.29 | -0.773 ± 0.21
11 | CGGGAGCAAUAUUACGCGAG |  | -2.93 ± 0.32
12 | CGGGAGCAAUAUUACGCGGA | -2.82 ± 0.23 | -2.93 ± 0.28
13 | CGGGAGCAAUAUUACGCGUA | -2.29 ± 0.29 | -1.03 ± 0.24
14 | CGGGAGCAAUAUUACGGCGU | -3.6 ± 0.26 | -1.73 ± 0.21
15 | CGGGAGCAAUAUUACGGUCA | -3.17 ± 0.32 | -1.93 ± 0.28
16 | CGGGAGCAAUAUUACGUAUA | -3.33 ± 0.33 | -2.4 ± 0.25
17 | CGGGAGCAAUAUUACGUCGA |  | -1.71 ± 0.48
18 | CGGGAGCAAUAUUACGUCUG | -3.61 ± 0.22 | -2.03 ± 0.22
19 | CGGGAGCAAUAUUACGUGCA | -3.02 ± 0.27 | -2.29 ± 0.22
20 | CGGGAGCAAUAUUACGUGUG | -2.47 ± 0.16 | -0.316 ± 0.11
21 | CGGGAGCAAUAUUACGUUAA | -2.63 ± 0.28 | -1.68 ± 0.3
22 | CGGGAGCAAUAUUACGUUCC | -2.75 ± 0.31 | 
23 | CGGUAGCAAUAUUACGACCU | 0.308 ± 0.21 | -0.233 ± 0.19
24 | CGGUAGCAAUAUUACGACGC | -1.39 ± 0.16 | -0.431 ± 0.2
25 | CGGUAGCAAUAUUACGACGG | -0.359 ± 0.081 | 0.071 ± 0.12

Row | Sequence | self-splicing fitness (ln) (30 °C) | self-splicing fitness (ln) (37 °C)
26 | CGGUAGCAAUAUUACGAGAU | -3.19 ± 0.3 | -2.32 ± 0.28
27 | CGGUAGCAAUAUUACGAGGA | -3.34 ± 0.46 | -1.75 ± 0.29
28 | CGGUAGCAAUAUUACGAUAA | -2.55 ± 0.21 | -1.61 ± 0.24
29 | CGGUAGCAAUAUUACGAUCU | -0.105 ± 0.081 | 0.492 ± 0.12
30 | CGGUAGCAAUAUUACGCAAG | -1.94 ± 0.11 | -1.02 ± 0.12
31 | CGGUAGCAAUAUUACGCACG | -2.85 ± 0.21 | -1.59 ± 0.26
32 | CGGUAGCAAUAUUACGCGCA | -1.16 ± 0.14 | -0.13 ± 0.15
33 | CGGUAGCAAUAUUACGGACC | -3.71 ± 0.35 | -1.29 ± 0.21
34 | CGGUAGCAAUAUUACGGAGC | -3.01 ± 0.33 | -2.91 ± 0.34
35 | CGGUAGCAAUAUUACGGCAU | -2.98 ± 0.32 | -2.11 ± 0.22
36 | CGGUAGCAAUAUUACGGGAA | -3.45 ± 0.41 | -2.75 ± 0.29
37 | CGGUAGCAAUAUUACGGUUC | -2.96 ± 0.3 | -1.93 ± 0.29
38 | CGGUAGCAAUAUUACGUAAC | -3.22 ± 0.4 | -2.06 ± 0.41
39 | CGGUAGCAAUAUUACGUCAU | -3.21 ± 0.14 | -2.56 ± 0.15
40 | CGGUAGCAAUAUUACGUCCA | 0.282 ± 0.15 | 0.197 ± 0.23
41 | CGGUAGCAAUAUUACGUUCA | -1.32 ± 0.13 | -0.963 ± 0.15
42 | CGUAAGCAAUAUUACGAACU | -1.27 ± 0.083 | -0.364 ± 0.074
43 | CGUAAGCAAUAUUACGCAGA | -2.28 ± 0.27 | -2.67 ± 0.38
44 | CGUAAGCAAUAUUACGCGUA | -3 ± 0.28 | -2.9 ± 0.2
45 | CGUAAGCAAUAUUACGCUGU | -2.93 ± 0.16 | -2.17 ± 0.21
46 | CGUAAGCAAUAUUACGGAAA | -3.62 ± 0.47 | -2.39 ± 0.39
47 | CGUAAGCAAUAUUACGGAUU | -3.61 ± 0.3 | -1.49 ± 0.23
48 | CGUAAGCAAUAUUACGGCGU | -2.28 ± 0.15 | -1.59 ± 0.23
49 | CGUAAGCAAUAUUACGGUAA | -3.06 ± 0.28 | -1.36 ± 0.17
